Paper PMC12215978, “CryoEM structure of the SLFN14 endoribonuclease reveals insight into RNA binding and cleavage” (Nature Communications, 2025)
“And” between values parts separate entries of the source, which are not always exact repeats. Equal entries are not always repeated. Blank lines part the entries; values can stand above or below the molecule they belong to.

How the values were obtained:
[1] = biological target: SLFN14^ΔCTD, SLFN14 C-terminal truncation that lacks the CTD (human); test: SEC; Superdex-200 Increase 3.2/300, 5–10 μM protein, storage buffer (20 mM Tris pH 7.4, 150 mM NaCl, 5 mM MgCl2, 1 mM TCEP), calibrated with gel filtration standards
[2] = biological target: isolated SLFN14 CTD (SLFN14^CTD) (human); test: as above
[3] = biological target: the molecule itself; test: mass photometry; purified SLFN14 in solution; also exposed to high salt conditions; methods not shown

- stoichiometry N [1]: 2
Molecule: SLFN14^ΔCTD, SLFN14 C-terminal truncation that lacks the CTD (domain or fragment)

- stoichiometry N [2]: 2
Molecule: isolated SLFN14 CTD (SLFN14^CTD) (domain or fragment)

B1: full-length recombinant human SLFN14 (residues 1–912), C-terminally Flag-tagged (enzyme, UniProt P0C7P3 1-912, looked up)
chain: MESLKTDTEMPYPEVIVDVGRVIFGEENRKKMTNSCLKRSENSRIIRAICALLNSGGGVIKAEIDDKTYSYQCHGLGQDLETSFQKLLPSGSQKYLDYMQQGHNLLIFVKSWSPDVFSLPLRICSLRSNLYRRDVTSAINLSASSALELLREKGFRAQRGRPRVKKLHPQQVLNRCIQEEEDMRILASEFFKKDKLMYKEKLNFTESTHVEFKRFTTKKVIPRIKEMLPHYVSAFANTQGGYVLIGVDDKSKEVVGCKWEKVNPDLLKKEIENCIEKLPTFHFCCEKPKVNFTTKILNVYQKDVLDGYVCVIQVEPFCCVVFAEAPDSWIMKDNSVTRLTAEQWVVMMLDTQSAPPSLVTDYNSCLISSASSARKSPGYPIKVHKFKEALQRHLFPVTQEEVQFKPESLCKKLFSDHKELEGLMKTLIHPCSQGIVIFSRSWAGDVGFRKEQNVLCDALLIAVNSPVVLYTILIDPNWPGGLEYARNTAHQLKQKLQTVGGYTGKVCIIPRLIHLSSTQSRPGEIPLRYPRSYRLADEEEMEDLLQALVVVSLSSRSLLSDQMGCEFFNLLIMEQSQLLSESLQKTRELFIYCFPGVRKTALAIKIMEKIKDLFHCKPKEILYVCESDSLKDFVTQQTTCQAVTRKTFMQGEFLKIKHIVMDETENFCSKYGNWYMKAKNITHPKAKGTGSENLHHGILWLFLDPFQIHHADVNGLPPPSAQFPRKTITSGIHCALEIAKVMKEEMKRIKENPPSNMSPDTLALFSETAYEEATCAQALPGVCETKTNLTTEQIANYVARKCHSLFQCGYLPKDIAILCRRGEDRGRYRLALLKAMELIETHRPSEVVFSPATGVWGSHIVLDSIQQFSGLERTVVFGLSPECDQSEEFHKLCFASRAIKHLYLLYEKRAAY
notes: human SLFN14, full length, residues 1-912; The sample keeps co-purified cellular nucleic acid, and the structure has RNA in the cleft; also called SLFN14 wild-type (WT); Schlafen 14; not shown: Flag, C-terminal, kept
- stoichiometry N [3]: 2 and 4
